Assay results from patent publication US20190309087A1.
Each block holds one molecule with its values, some of them ahead of it.

Tests used:
[1] = molecular target: recombinant mouse CD34 (Sino Biological) (mouse) (UniProt Q64314); test: ELISA on coated recombinant mouse CD34, LNPs pre-incubated with Triton X-100, anti-Rat HRP detection
[2] = molecular target: recombinant mouse CD34 (Sino Biological) (mouse) (UniProt Q64314); test: ELISA on coated recombinant mouse CD34
[3] = molecular target: Rat IgG2a (RIg), BioXcell clone FIB504; test: ELISA, plates coated with 5 µg/ml RIg, ASSET in serial dilutions, anti-His detection
[4] = molecular target: Rat IgG2a (RIg), BioXcell clone FIB504; test: ELISA on coated RIg of ASSET LNPs after dialysis, LNPs pre-incubated with 0.2% Triton X-100
[5] = molecular target: anti-CD34 RIg (clone mec14.7) held by ASSET on TsiLNPs; test: share of added RIg held on ASSET LNPs, gel quantification after purification
[6] = molecular target: Rat IgG2a (RIg) immobilized on the Biacore chip (Rattus norvegicus (Rat)) (UniProt P20760); test: SPR, Biacore T-200, RIg immobilized on CM5 chip, mASSET 0 to 30 nM
Chain of UniProt P20760 (P20760 whole entry): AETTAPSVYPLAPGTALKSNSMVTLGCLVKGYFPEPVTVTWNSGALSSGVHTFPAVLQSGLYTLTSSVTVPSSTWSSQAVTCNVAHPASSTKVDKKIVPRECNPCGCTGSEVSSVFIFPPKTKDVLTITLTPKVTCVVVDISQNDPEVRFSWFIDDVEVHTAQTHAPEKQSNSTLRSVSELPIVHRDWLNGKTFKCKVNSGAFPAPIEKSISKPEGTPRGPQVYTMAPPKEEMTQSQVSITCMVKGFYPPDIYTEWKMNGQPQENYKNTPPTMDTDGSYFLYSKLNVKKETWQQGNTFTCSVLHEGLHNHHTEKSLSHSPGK

Chain of UniProt Q64314 (Q64314 35-287 limits assumed): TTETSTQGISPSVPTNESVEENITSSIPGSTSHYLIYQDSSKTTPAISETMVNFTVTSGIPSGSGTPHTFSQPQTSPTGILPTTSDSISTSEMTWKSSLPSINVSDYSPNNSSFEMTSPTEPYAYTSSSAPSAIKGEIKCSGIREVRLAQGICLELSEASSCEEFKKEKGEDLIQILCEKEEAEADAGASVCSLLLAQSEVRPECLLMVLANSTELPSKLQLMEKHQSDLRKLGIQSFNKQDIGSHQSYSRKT

Molecule: anti-CD34 RIg (clone mec14.7) chemically conjugated to LNPs (ccTsiLNPs) (antibody)
fold loss in activity against RIg bound to the LNP by ASSET [2]: 4.5 fold | Kd [1]: 1.08 nM

B1: ASSET (Anchored Secondary scFv Enabling Targeting) (scFv, part only; not given: mCherry fusion and junctions, part only)
scFv, part: CDQSSSEVQLLQSGPELVKPGASVKIPCKASGYTFTDYNMDWVKQSHEKSLEWIGYINPYSGDTIYNHKFKDKATLTVYKSSNIAYMELRSLTSEDTAVYYCARGGYDYGDHWGQGTTLTVSSGSAGGGGSGGGGSGGGGSDIKMTQSPSSMYASLGERVTITCKASQDINSYLSWFQQKPGKSPKTLIYRANRLVDGVPSRFSGSGSGQDYSLTISSLEYEDMGIYYCLQDDEFPRTFGGGTKLEIKHHHHHH
modifications: N-terminal cysteine of the CDQSSS NlpA motif is lipid-acylated (bacterial lipidation)
Kd [3]: 10 nM | functionality maintained after incorporation into LNPs [4]: 95.8% | IgG incorporation [5]: 98.3%

Next, values leading:

Kd [1]: 0.24 nM
Molecule: anti-CD34 RIg (clone mec14.7) held by ASSET on TsiLNPs (antibody)

Kd [6]: 22.7 nM
B2: mutated (m)ASSET, fusion protein containing a mutated NlpA motif (scFv, not shown: small tags and cut ends)
scFv: EVQLLQSGPELVKPGASVKIPCKASGYTFTDYNMDWVKQSHEKSLEWIGYINPYSGDTIYNHKFKDKATLTVYKSSNIAYMELRSLTSEDTAVYYCARGGYDYGDHWGQGTTLTVSSGSAGGGGSGGGGSGGGGSDIKMTQSPSSMYASLGERVTITCKASQDINSYLSWFQQKPGKSPKTLIYRANRLVDGVPSRFSGSGSGQDYSLTISSLEYEDMGIYYCLQDDEFPRTFGGGTKLEIK
